Each substance was assayed against neonatal Fc receptor (FcRn) protein, immobilized on a column (UniProt P55899) (assay: FcRn affinity chromatography; FcRn immobilised on an affinity column (Roche); 30 µg antibody in 20 mM MES, 140 mM NaCl pH 5.5; 10 min at 20% buffer B (20 mM Tris, 140 mM NaCl pH 8.8), then 20-100% buffer B over 80 min; 0.5 mL/min).
UniProt P55899, sequence (P55899 24-297): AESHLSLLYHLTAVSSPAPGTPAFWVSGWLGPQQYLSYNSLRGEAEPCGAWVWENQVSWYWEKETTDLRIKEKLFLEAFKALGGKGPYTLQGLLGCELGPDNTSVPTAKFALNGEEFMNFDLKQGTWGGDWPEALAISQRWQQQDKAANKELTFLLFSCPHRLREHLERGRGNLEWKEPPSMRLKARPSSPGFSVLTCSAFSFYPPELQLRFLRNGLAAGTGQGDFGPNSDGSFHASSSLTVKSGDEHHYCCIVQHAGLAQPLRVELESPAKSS

FcRn ret. time, 46.4 min:
Bapi (monospecific bapineuzumab IgG with effector function reducing mutations L234A, L235A, P329G) (antibody)
Bapi (control), control variant without mutations (antibody)
Bapi-Fab8D3 (bispecific bapineuzumab IgG1, knobs-into-holes, with a single-chain Fab of the TfR antibody 8D3 on the C-terminus of one heavy chain; L234A, L235A, P329G) (bispecific antibody)

From article PMC11028011
